Test results taken from patent publication US20150299277A1, “AGENT FOR TREATING OR PREVENTING SYSTEMIC INFLAMMATORY RESPONSE SYNDROME” (THE UNIVERSITY OF TOKYO, priority 2012, published 2015).
Entries after “also recorded” stand apart in the source; their conditions may differ.

Key:
Calf Thymus Histones = assay: Aggregation with histone, absorbance at 310 nm; type: binding; conditions: mixture with Calf Thymus Histones
Method: The lower left figure and the lower right figure show the measurement results of absorbance at 310 nm of a mixture of a wild-type or oligomer formation capacity-deficient mutant of PTX3 N-terminal domain having each concentration and 0.1 mg/mL Calf Thymus Histones at 1:1 vol.
The aggregation activity of PTX3 and other pentraxins to histone was evaluated. Calf Thymus Histones (50 μg/mL) were mixed with a PTX3 fragment or the other pentraxin at each concentration, and the absorbance at the wavelength of 310 nm was measured. Before mixing, samples were dialyzed against 4 mM CaCl2-containing TBS.

each histone variant = assay: Aggregation of each histone variant and PTX3 fragment, absorbance at 310 nm; type: binding; conditions: histone variant 50 μg/mL, PTX3 fragment 30 μg/mL
Method: Each histone variant (50 μg/mL) and each PTX3 fragment (30 μg/mL) were mixed, and the absorbance at the wavelength of 310 nm was measured. Before mixing, samples were dialyzed against 4 mM CaCl2-containing TBS.

each histone [1] = assay: BIAcore / surface plasmon resonance (SPR) measurement; type: binding, human; conditions: immobilized recombinant histone
Method: For the measurement, BIAcore 3000 or T200 (GE Healthcare) was used. Recombinant human histone was immobilized on CM5 sensor chip by an amine coupling kit (GE Healthcare). The reaction with recombinant PTX3 was performed using a buffer (150 mM NaCl, 20 mM HEPES, 0.005% surfactant P20 (pH 7.4)) at a flow rate of 20 μl/min. Measurement was performed using the buffer containing […]. The sensor chip was regenerated in IM sodium acetate (10 μL, pH 7.2) and 10 mM NaOH (10 μL).
The binding of immobilized each recombinant histone, and Myc- and His-tagged human PTX3 fragment was measured by surface plasmon resonance (SPR). The highest concentration of each PTX3 was as follows. full-length PTX3: 1 nM, N-terminal domain of PTX3: 5 nM, C-terminal domain of PTX3: 50 nM. The assay buffer contained 4 mM CaCl2 (Ca^2+) or 4 mM EDTA/EGTA. The affinity measured by SPR was calculated from three experiments.

each histone [2] = assay: ELISA binding assay; design: species or system human; conditions: immobilized recombinant histone
Method: Recombinant human histone (NEB) was adjusted to a concentration of 1 μg/mL in TBS, added to a 96 well ELISA plate, and immobilized at 4° C. overnight. The solution was discarded, a blocking buffer (TBS, 0.1% Triton-X100, 1% BSA) was added, and the plate was incubated at room temperature for 2 hr. The plate was washed four times with a wash buffer (TBS, 0.1% Triton-X100), recombinant PTX3 diluted to various concentrations with the blocking buffer was added to each well, and reacted at room temperature for 1 hr. After washing four times with the wash buffer, HRP-labeled antibody diluted with the blocking buffer was added, and reacted at room temperature for 1 hr. After washing four times with the wash buffer, TMB solution was added to carry out a color development reaction for 30 min, and the absorbance at 450 nm was measured. […]
The binding level between immobilized each recombinant histone and tag-free recombinant human PTX3 (rhPTX3) was measured by binding assay (ELISA). […] ELISA was performed with duplicate wells for each point, and means and standard deviations were calculated from three independent experiments.
The binding level between immobilized each recombinant histone and a tagged human PTX3 fragment was measured by binding assay (ELISA). […] ELISA was performed with duplicate wells for each point, and means and standard deviations were calculated from three independent experiments.

[3] = system: Calf Thymus Histones on HUVEC; assay: Cytotoxic assay: suppression of histone cytotoxicity on HUVEC; type: cell-based, human; conditions: 100 μg/mL Calf Thymus Histones, 40 μg/mL protein, 1 hr, PI staining, FACS
Method: After culturing for 1 hr in a medium concurrently containing 100 μg/mL Calf Thymus Histones and APC (200 nM), PTX3 (40 μg/mL), CRP (40 μg/mL) or SAP (40 μg/mL), the level of toxic activity was measured by FACS.
Normal human umbilical vein endothelial cells (HUVECs) were cultured in EGM2 medium (Clonetics). The cells after culture were washed with PBS, added with Opti-MEM medium containing an product of incubation of activated protein C (APC), PTX3, C reactive protein (CRP) or Serum amyloid P component (SAP) with histone for 1 hr, and the cells were further cultured for 1 hr. Propidium iodide (PI) was added to the medium after culture at a final concentration of 10 μg/mL, and the cells were stained for 10 min. The cells were washed with PBS, detached and analyzed by flow cytometry.
The histone cytotoxicity on HUVEC was evaluated by propidium iodide (PI) staining.
Lastly, capacity of suppressing the cytotoxic activity of histone was confirmed. Since this experiment requires a certain amount of protein and an endotoxin-elimination as treatment, a protein was expressed and purified at a 500 mL culture scale, and subjected to an endotoxin-elimination treatment (FIG. 18). In the case of PTX3 N-terminal domain, about 10 mg was obtained at a 500 mL culture scale, and a loss by the endotoxin-elimination treatment was scarcely observed. […]

B1: C-terminal domain of PTX3: C-terminal domain human PTX3 (179-381 amino acids), Myc- and His-tagged (protein)
chain: CETAILFPMRSKKIFGSVHPVRPMRLESFSACIWVKATDVLNKTILFSYGTKRNPYEIQLYLSYQSIVFVVGGEENKLVAEAMVSLGRWTHLCGTWNSEEGLTSLWVNGELAATTVEMATGHIVPEGGILQIGQEKNGCCVGGGFDETLAFSGRLTGFNIWDSVLSNEEIRETGGAESCHIRGNIVGWGVTEIQPHGGAQYVS
modifications: left off: small tags and cut ends
notes: C-terminal domain human PTX3 (179-381 amino acids), Myc- and His-tagged
Calf Thymus Histones
  aggregation with Calf Thymus Histones, absorbance at 310 nm: weaker than that of the full-length PTX3 and N-terminal domain of PTX3
Each histone variant
  aggregation with each histone variant, absorbance at 310 nm: aggregated
Each histone [1]
  affinity for each histone by SPR: full-length PTX3>N-terminal domain>C-terminal domain
Each histone [2]
  bindability to each histone (binding assay): weak

B2: N-terminal domain that lost the oligomer formation capacity: N-terminal domain human PTX3 wherein the 47th, 49th, 103rd cysteine residues were replaced with serine residue (protein)
chain: ENLYFQGENSDDYDLMYVNLDNEIDNGLHPTEDPTPSDSGQEHSEWDKLFIMLENSQMRERMLLQATDDVLRGELQRLREELGRLAESLARPSAPGAPAEARLTSALDELLQATRDAGRRLARMEGAEAQRPEEAGRALAAVLEELRQTRADLHAVQGWAARSWLPAG
modifications: left off: small tags and cut ends
notes: N-terminal domain human PTX3 wherein the 47th, 49th, 103rd cysteine residues were replaced with serine residue
Calf Thymus Histones
  aggregation with Calf Thymus Histones, absorbance at 310 nm: decrease; also recorded: decreased aggregation activity
Each histone [1]
  affinity for each histone by SPR: affinity decreased as compared to the wild-type
Each histone [2]
  bindability to each histone (binding assay): decrease; also recorded: scarcely bound

B3: CRP: C-reactive protein, short pentraxin used as comparator (protein, UniProt P02741 19-224, looked up)
C-reactive protein: QTDMSRKAFVFPKESDTSYVSLKAPLTKPLKAFTVCLHFYTELSSTRGYSIFSYATKRQDNEILIFWSKDIGYSFTVGGSEILFEVPEVTVAPVHICTSWESASGIVEFWVDGKPRVRKSLKKGYTVGAEASIILGQEQDSFGGNFEGSQSLVGDIGNVNMWDFVLSPDEINTIYLGGPFSPNVLNWRALKYEVQGEVFTKPQLWP
Calf Thymus Histones
  aggregation with Calf Thymus Histones, absorbance at 310 nm: no aggregation capacity; also recorded: scarcely showed an aggregation activity
[3]
  suppression of toxic activity of Calf Thymus Histones on HUVEC: do not have such suppressive effect
